Data reported in PMC7618375 (2024).

Target: SETDB1 peptide trimethylated at K1178 (human (by the printed UniProt entry), UniProt Q15047, trimethyl-lysine at 1178)
Test: ITC

Kd: > 80 µM
B1: MPP8 chromodomain (CD, residues 55-116) (domain or fragment)
chain: GEDVFEVEKILDMKTEGGKVLYKVRWKGYTSDDDTWEPEIHLEDCKEVLLEFRKKIAENKAK
